Results taken from article PMC9608196.

Key:
[1] = molecular target: His6-tagged full-length gp24 (tail fiber protein of myocyanophage Pam3) (cyanophage Pam3); assay: SEC-MALS; Superdex 200 Increase 10/300 GL in 20 mM Tris-HCl pH 7.0, 100 mM NaCl, 7 mM beta-mercaptoethanol; 1 mg/mL, 100 uL
[2] = molecular target: His6-tagged full-length gp24 (tail fiber protein of myocyanophage Pam3) (cyanophage Pam3); assay: SDS-PAGE of samples that were not boiled; purified protein treated with beta-mercaptoethanol, not boiled
[3] = molecular target: His6-tagged full-length gp24 (tail fiber protein of myocyanophage Pam3) (cyanophage Pam3); assay: SEC; His-gp24 co-expressed with untagged gp25 in E. coli, purified by Ni-NTA; Superdex 200 Increase 10/300 column; peaks analysed by SDS-PAGE
[4] = molecular target: His6-tagged full-length gp24 (tail fiber protein of myocyanophage Pam3) (cyanophage Pam3); assay: SEC; individually expressed His-gp24 or His-gp25; Superdex 200 Increase 10/300 column; peaks analysed by SDS-PAGE
[5] = molecular target: His6-tagged full-length gp25 (tail fiber chaperone of myocyanophage Pam3), expressed alone (cyanophage Pam3); assay: as above

**Q.** “His6-tagged full-length gp24 (tail fiber protein of myocyanophage Pam3) (natural protein)” was tested. Which stoichiometry N [1] did it give?
**A.** 3

**Q.** What about the stoichiometry N [2] of the same substance?
**A.** 3

**Q.** What about the stoichiometry N [3] of the same substance?
**A.** 3

**Q.** And the stoichiometry N [4]?
**A.** 3

**Q.** “His6-tagged full-length gp25 (tail fiber chaperone of myocyanophage Pam3), expressed alone (natural protein)” was tested. Which stoichiometry N [5] did it give?
**A.** 3

**Q.** Which stoichiometry N (gp25 per gp24 (3:3)) [1] does the source give for “gp25 (tail fiber chaperone of myocyanophage Pam3), untagged, co-expressed with His-gp24 (natural protein)” here?
**A.** 1
